Literature values in publication PMC6002756.

Assays:
E-cadherin (X-dimer) ECD = E-cadherin (X-dimer) ECD (UniProt P12830)
E-cadherin ECD = E-cadherin ECD (UniProt P12830)

Chain of E-cadherin (X-dimer) ECD (P12830 155-709): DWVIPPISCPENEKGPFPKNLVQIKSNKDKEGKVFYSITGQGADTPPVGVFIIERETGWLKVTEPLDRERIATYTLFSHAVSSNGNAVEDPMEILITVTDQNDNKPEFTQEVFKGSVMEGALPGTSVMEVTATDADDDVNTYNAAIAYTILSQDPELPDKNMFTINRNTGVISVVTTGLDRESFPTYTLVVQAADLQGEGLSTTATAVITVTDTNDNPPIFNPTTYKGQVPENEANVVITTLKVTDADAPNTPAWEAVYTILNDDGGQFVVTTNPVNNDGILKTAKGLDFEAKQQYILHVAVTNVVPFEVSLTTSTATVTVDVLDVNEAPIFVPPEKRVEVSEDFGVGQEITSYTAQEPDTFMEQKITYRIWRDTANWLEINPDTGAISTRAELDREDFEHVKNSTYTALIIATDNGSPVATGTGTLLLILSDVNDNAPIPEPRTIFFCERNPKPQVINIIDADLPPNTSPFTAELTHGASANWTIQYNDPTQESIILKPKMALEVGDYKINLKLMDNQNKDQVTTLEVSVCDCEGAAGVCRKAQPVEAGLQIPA
Chain of E-cadherin ECD (P12830 155-709): as above

| Kd (E-cadherin (X-dimer) ECD) [µM] | Kd (E-cadherin ECD) [µM] | Substance |
| --- | --- | --- |
| 900 |  | E-cadherin (X-dimer) ECD (from UniProt P12830) |
|  | 100 | E-cadherin ECD (from UniProt P12830) |
